{"source": "paper PMC7266993", "about": "“STAG1 vulnerabilities for exploiting cohesin synthetic lethality in STAG2-deficient cancers” (Life Science Alliance, 2020)", "key": {"[1]": {"target": "T1, Biotinylated RAD21 peptide, residues 356-395 (Biotin-Ttds-RAD21 356-395) (human, N-terminal biotin followed by a trioxatridecan–succinamic acid spacer (Biotin-Ttds-))", "T1 construct": "Immobilised on a streptavidin (SA) sensor chip through the biotin; source: synthetic peptide, purchased", "T1 peptide": "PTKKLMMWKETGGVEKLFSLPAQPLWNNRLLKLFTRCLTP", "assay": "SPR; Biacore S200, SA chip, ~400 RU biotinylated RAD21 356-395 immobilised; STAG1 as analyte, single cycle kinetics 7.5-1,000 nM, 120 s injections; 10 mM Hepes pH 7.5, 150 mM NaCl, 0.5 mM TCEP; 1:1 binding model", "details": "both partners purified"}, "[2]": {"target": "T1, Biotinylated RAD21 peptide, residues …", "assay": "SPR; Biacore S200, SA chip, biotinylated RAD21 356-395 immobilised; STAG1 as analyte, equilibrium analysis (650 s association, 1,200 s dissociation), dose-response fit; 10 mM Hepes pH 7.5, 150 mM NaCl, 0.5 mM TCEP; apparent", "details": "both partners purified"}}}
{"binder": "STAG1 central region, wild type, as used in surface plasmon resonance (residues 415-915 as printed in the results) (domain or fragment) NVYHLVYSAHRPVAVAAGEFLHKKLFSRHDPQAEEALAKRRGRNSPNGNLIRMLVLFFLESELHEHAAYLVDSLWESSQELLKDWECMTELLLEEPVQGEEAMSDRQESALIELMVCTIRQAAEAHPPVGRGTGKRVLTAKERKTQIDDRNKLTEHFIITLPMLLSKYSADAEKVANLLQIPQYFDLEIYSTGRMEKHLDALLKQIKFVVEKHVESDVLEACSKTYSILCSEEYTIQNRVDIARSQLIDEFVDRFNHSVEDLLQEGEEADDDDIYNVLSTLKRLTSFHNAHDLTKWDLFGNCYRLLKTGIEHGAMPEQIVVQALQCSHYSILWQLVKITDGSPSKEDLLVLRKTVKSFLAVCQQCLSNVNTPVKEQAFMLLCDLLMIFSHQLMTGGREGLQPLVFNPDTGLQSELLSFVMDHVFIDQDEENQSMEGDEEDEANKIEALHKRRNLLAAFSKLIIYDIVDMHAAADIFKHYMKYYNDYGDIIKETLSKTRQID", "values": [{"measurement": "Kd", "setting": "[1]", "value": 127, "unit": "nM"}, {"measurement": "koff", "setting": "[1]", "value": 0.00709, "unit": "s⁻¹"}, {"measurement": "kon", "setting": "[1]", "value": 55900, "unit": "M⁻¹ s⁻¹"}, {"measurement": "Kd", "setting": "[2]", "value": "148 ± 22", "unit": "nM"}]}
